# Reference: the nanobody polyreactivity screen of Harvey et al. (2022)
# Test: yeast display, Sf9 membrane polyspecificity reagent, FACS + sequencing; frameworks hold sequencing errors
# Outline: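 In a synthetic yeast display library (Saccharomyces cerevisiae BJ5465), nanobody expression was induced with galactose for 36–48 hours. FACS gates were set low and high (top ~1%) using anti-HA fluorescence for expression and streptavidin fluorescence for binding of the Sf9 membrane reagent. Each polyreactivity label is drawn from the gate of origin.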
row,Sequence,polyreactivity (PSR sort gate)
1,QVQLVESGGGLVQAGGSLRLSCAASGLTLTYYAMGWYRQAPGKERELVAAISRSGGSTHYADSVKGRFTISRDNAKNTVYLQMNSLKPEDTAVYYCNAQQGRYWSAKGYDYWGQGTQVTVSS,high polyreactivity
2,QVQLVESGGGLVQAGGSLRLSCAASGLTLYRNAMGWYRPAPGKVRELVAAITKSGARTYYADSVKGRFTISRDNAKNTVYLQMNSLKPEDTAVYYCAADALNTYNYWGQGTQVTVSS,high polyreactivity
3,QVQLVESGGGLVQAGGSLRLSCAASGLTLYYYAMGWYRQAPGKERELVAAISYSGGSTYYADSVKGRFTISRDNAKNTVYLQMNSLKPEDTAVYYCAADGDSDIRDDYWGQGTQVTVSS,low polyreactivity
4,QVQLVESGGGLVQAGGSLRLSCAASGLTSTDNAMGWYRQAPGKERELVAGITTGGSTYYADSVKGRFTISRDNAKNTVYLQMNSLKPEDTAVYYCNAPTYADTTYDYWGQGTQVTVSS,low polyreactivity
5,QVQLVESGGGLVQAGGSLRLSCAASGMGWYRQAPGKERELVARISGGVSTNYADSVKGRFTISRDNAKNTVYLQMNSLKPEDTAVYYCAADPLDTYDYWGQGTQVTVSS,low polyreactivity
6,QVQLVESGGGLVQAGGSLRLSCAASGMICGVYAMGWYRQAPGKERELVAAIDGNGSSTYYADSVKGRFTISRDNAKNTVYLQMNSLKPEDTAVYYCAAGYWSYLYYWYDFDYWGQGTQVTVSS,low polyreactivity
7,QVQLVESGGGLVQAGGSLRLSCAASGMIFSDYSMGWYRQATGKERELVATITRSVRTSYADSVKGRFTISSDNAKNTVYLQMNSLKPEDTAVYYCNADVVGAVIAFDYWGQGTQVTVSS,low polyreactivity
8,QVQLVESGGGLVQAGGSLRLSCAASGMTFSKYVMGWYRQAPGKERELVAAITWSGGRTYYADSVKGRFTISRDNAKNTVYLQMNSLKPEDTAVYYCNSKLKGLGYEYDYWGQGTQVTVSS,high polyreactivity
9,QVQLVESGGGLVQAGGSLRLSCAASGNAMGWYRQAPGKERDLVAAITRRGGSTYYADSVKGRFTISRDNAKNTVYLQMNSLKPEDTAVYYCAADNPSYNLWYGYWGQGTQVTVSS,low polyreactivity
10,QVQLVESGGGLVQAGGSLRLSCAASGNAMGWYRQAPGKERELVAAITRRGGSTYYADSVKGRFTISRDNAKNTVYLQMNSLKPEDTAVYYCAAENPSYNLCYGYWGQGTQVTVSS,low polyreactivity
11,QVQLVESGGGLVQAGGSLRLSCAASGNHLRSLSLGWNRQAPGKQRELVAAITSSGASTYYADSVKGRFTNSRDNAKNSVYLQMNSLKPEDSAVYYCAAYLFRRYDYWGQGTQVSVSS,low polyreactivity
12,QVQLVESGGGLVQAGGSLRLSCAASGNIFDLYAMGWYRQAPGKERELVAAITRSSSRTYYADSVKGRFTISRDNAKNTVYLQMNSLKPEDTAVYYCNKRWITSYYTRYDYWGQGTQVTVSS,high polyreactivity
13,QVQLVESGGGLVQAGGSLRLSCAASGNIFDPYAMGWYIQAPGKERELVAVINASGDSTYYADSVKGRFTISRDNAKNTVYLQMNSLKPEDTAVYYCAADHRGEYDYWGQGTQVTVSS,low polyreactivity
14,QVQLVESGGGLVQAGGSLRLSCAASGNIFEYYAMGWYRQAPGKERELVATITSGGSTNYADSVKGRFTISRDNAKNTVYLQMNSLKPEDTAVYYCNADIISVSVYYFIVEYDYWGQGTQVTVSS,low polyreactivity
15,QVQLVESGGGLVQAGGSLRLSCAASGNIFFGNTMGWYRQAPGKERELVAAISRSGGSTYYADSVKGRFTISRDNAKNTVYLQMNSLKPEDTAVYYCAAEYYGWPYDSWGQGTQVTVSS,high polyreactivity
16,QVQLVESGGGLVQAGGSLRLSCAASGNIFFSNAMGWYRQAPGKERELVASISQSGGSTYYADSVKGRFTISRDNAKNTVYLQMNSLKPEDTAVFYCAATQVRRGPAWGRDYWGQGTQVTVSS,low polyreactivity
17,QVQLVESGGGLVQAGGSLRLSCAASGNIFFTNAMGWYRQAPGKERELVATISFRGTSTYYADSVKGRFTISRDNAKKTVYLQMNSLKPEDTAVYYCAARYSVFHRARVNLLGWGLYYWGQGTQVTVSS,low polyreactivity
18,QVQLVESGGGLVQAGGSLRLSCAASGNIFGDYAMGWYRQAPGKERELVAAITQTGGNTYYADSVKGRFTISRDNAKNTVYLQMNSLKPEDTAVYYCNKVSVVYSRSKGFYYTYLKYEYWGQGTQVTVSS,low polyreactivity
19,QVQLVESGGGLVQAGGSLRLSCAASGNIFGENAMGWYRQAPGKERELVAAITRIDGNTYYADSVKGRVTISRDNAKNTVYLQMNSLKPEDTAVYYCATDEPVGRYQHNYYWGQGTQVTVSS,low polyreactivity
20,QVQLVESGGGLVQAGGSLRLSCAASGNIFGFNAMGWYRQAPGKERELVAAINSGGSTYYADSVKGRFTISRDNAKNTLYLQMNSLKPEDTAVYYCAAVRGKYRFGFWGQGTQVTVSS,high polyreactivity
21,QVQLVESGGGLVQAGGSLRLSCAASGNIFGLYAMGWYRQAPGTERELVAAISFSDTSTYYADSVKGRYTISRDNAKNTVYLQMNSLKPEDTAVYYCAAELWFNNGEHNYWGQGTQVTVSS,high polyreactivity
22,QVQLVESGGGLVQAGGSLRLSCAASGNIFGVNAMGWYRQAPGKERELVAAITCSDSSTNYADSVKGRFTISRDNAKNTVYLQMNSLKPEDTAVYYCATRVWRSAQSRWYGYDYWGQGTQVTVSS,high polyreactivity

row,Sequence,polyreactivity (PSR sort gate)
1,QVQLVESGGGLVQAGGSLRLSCAASGNIFGYYAMGWYRQAPGKERELVAAITTTGGSTYYADSVKGRFTISRDNAKNTVYLQMNSLKPEDTAVYYCAAETGYWYYYWGQGTQVTVSS,high polyreactivity
2,QVQLVESGGGLVQAGGSLRLSCAASGNIFHVNAMGWYRQAPGKERELVAGITWSGGSTYYADSVKGRFTISRDNAKNTVYLQMNSLKPEDTAVYYCAATGWYFGYGRYGYWVQGTQVTVSS,high polyreactivity
3,QVQLVESGGGLVQAGGSLRLSCAASGNIFIHYAMGWYRQAPGKERELVAAITWSGGSTYYADSVKGRFTISRDNAKNTVYLQMNSLTPEDTAVSYCNSVSKYGPADGYGDYWGQGTQVTVSS,high polyreactivity
4,QVQLVESGGGLVQAGGSLRLSCAASGNIFKHYAMGWYRQAPGKERELVAAITWSGGSTHYADSVKGLFTISRDNAKNTVYLQMNSLKPEDTAVYYCAARGWWPGTKWTRYDYWGQGTQVTVSS,high polyreactivity
5,QVQLVESGGGLVQAGGSLRLSCAASGNIFKVYVMGWYRQAPGKERELVAAISGSGGSTYYADSVKGRFTISRDNAKNTVYLQMNSLKPEDTAVYYCNKVFKVTAARSFGYWGQGTQVTVSS,low polyreactivity
6,QVQLVESGGGLVQAGGSLRLSCAASGNIFKYYAMGWYRQAPGKERELVAAISWGGSRTYYADSVKGRFTISRDNAKNTVYFQMNILKPEDSAVYYCAAAPRYSWTSVPRYDYWGLGTQVTVSS,high polyreactivity
7,QVQLVESGGGLVQAGGSLRLSCAASGNIFLFYVMGWYRQAPVKERELVAAITLSGTNTYYADSVKGRFTISRDNAKNNVYLQMNSLKPEDTAVYYCNADWWSDGYDYWGQRTQVTVSS,low polyreactivity
8,QVQLVESGGGLVQAGGSLRLSCAASGNIFLRYAMGWYRQAPGKERELVASITRSGASTYYAVSVKGRFTISRDNAKNTVYLQMNSLKPEDTAVYYCAASYYFRYYRGGYWGQGTQVTVSS,high polyreactivity
9,QVQLVESGGGLVQAGGSLRLSCAASGNIFLYYAMGWSRQAPGKERELVADIDSSGASTYYADSVKGRFTISRDNAKNNVYLQMNSLKPEDTAVYYCAAEFHWWYAGYDYGYWGQGTQVTVSS,low polyreactivity
10,QVQLVESGGGLVQAGGSLRLSCAASGNIFLYYAMGWYRPAPGKERELVADIDSSGAATYYADSVKGRFTISRDYAKNTVYLQMNSLKPEDTAVYYCAAEFHWWYAGYDYGYWGQGTQVTVSS,low polyreactivity
11,QVQLVESGGGLVQAGGSLRLSCAASGNIFLYYTMGWYRQAPGKERELVAGITSGGSTYYADSVKGRFTISRDNAKNTVSLQMNSLKPEDTAVYYCAATYYPNFYRYYYWGQGTQVTVSS,low polyreactivity
12,QVQLVESGGGLVQAGGSLRLSCAASGNIFNDNAKGLYRKAPVKERELVAAISSGGSTNYADSVKGRFTISRDYAKNTVYLQMNSLKPEDTAVYYCAAELTLIYWWSLDYWGQGTQVTVSS,low polyreactivity
13,QVQLVESGGGLVQAGGSLRLSCAASGNIFPGYAMGWYRQAPGKERELVAGISGSGGRTYYADSVKGRFTISRDNAKNTVYLQMNSLKTEDTAVYYCAAAFKYYYRFEYDYWGQGTQVTVSS,low polyreactivity
14,QVQLVESGGGLVQAGGSLRLSCAASGNIFRNNAMGWYRQAPGKERELVAAISYSGGRTYYADSVKGRFTISRDNAKNTVYLQMNSLKPEDTAVYYCAVTYGRNADDYEYWGQGTQVTVSS,high polyreactivity
15,QVQLVESGGGLVQAGGSLRLSCAASGNIFRYNAMGWYRQAPGKERELVAAISSGGSTYYADSVKGRFTISRDNAKNTVYLQMNSLKPEDTAVYYCNRRRWLWQTARGDYWGQGTQVTVSS,high polyreactivity
16,QVQLVESGGGLVQAGGSLRLSCAASGNIFSAYALGWYRQAPGKERELVATITSGGITYYADSVKGRFTISRDNAKNTVYLQMNSLNPEDTAVYYCNADHHGQAEYGYWGQGTQVTVSS,low polyreactivity
17,QVQLVESGGGLVQAGGSLRLSCAASGNIFSRYAMGWYRQAPGKERELVAAISKSGGSTYYADSVKGRFTISRDNAKNTVYLQMNSLKPEDTAVYYCAAYTFFLGYPEFDYWGQGTQVTVSS,high polyreactivity
18,QVQLVESGGGLVQAGGSLRLSCAASGNIFSSYAMGWYRQAPGKERELVARITTSAGRTYYADSVKGRFTISRDNAKNTVYLQMNSLKREETAVYSCAARGQSAYSIWRYYYWGQGTQVTVSS,high polyreactivity
19,QVQLVESGGGLVQAGGSLRLSCAASGNIFSVYAMGWYRQAPGKERELVAAISSSGGRTYYADSVKGRFTISRDNAKNTVYLQMNSLKPEDTAVYYCNTAGYDYYSTQAYDYWGQGTQVTVSS,high polyreactivity
20,QVQLVESGGGLVQAGGSLRLSCAASGNIFSWYAMGWYRQAPGKERELVAAITSGGRTYYADSVKGRFTISRDNAKNTVYLQMNSLKPEDTAVYYCNAVSRLYNRRDYWGQGTQVTVSS,high polyreactivity
21,QVQLVESGGGLVQAGGSLRLSCAASGNIFSYYAMGWYRQAPGKERELVAAISSGGSTYYADSVKGRFTISRDNAKNTVYLQMNSLKPEDTAVYYCATSYFSYFFYEYYSWGQGTQVTVSS,low polyreactivity
